The results in this text go back to patent US20180118837A1 (Hoffmann-La Roche, published 2018).

In assay [1] the target is SBP-tagged HER3-ECD (human). Description: ELISA-type assay, 10 nM Eu-labelled Heregulin-beta on plate-bound SBP-tagged HER3-ECD, M-05-74 titrated. (ELISA stands for enzyme-linked immunosorbent assay.)
The target of assay [2] is T1, HER3 ECD-HRG complex (human, UniProt P21860 20-643).
T1 construct: Her-3 ECD pre-incubated with a 5-fold molar excess of Heregulin; also called Heregulin/Her-3 ECD
T1 sequence (P21860 20-643 limits assumed, one chain of several): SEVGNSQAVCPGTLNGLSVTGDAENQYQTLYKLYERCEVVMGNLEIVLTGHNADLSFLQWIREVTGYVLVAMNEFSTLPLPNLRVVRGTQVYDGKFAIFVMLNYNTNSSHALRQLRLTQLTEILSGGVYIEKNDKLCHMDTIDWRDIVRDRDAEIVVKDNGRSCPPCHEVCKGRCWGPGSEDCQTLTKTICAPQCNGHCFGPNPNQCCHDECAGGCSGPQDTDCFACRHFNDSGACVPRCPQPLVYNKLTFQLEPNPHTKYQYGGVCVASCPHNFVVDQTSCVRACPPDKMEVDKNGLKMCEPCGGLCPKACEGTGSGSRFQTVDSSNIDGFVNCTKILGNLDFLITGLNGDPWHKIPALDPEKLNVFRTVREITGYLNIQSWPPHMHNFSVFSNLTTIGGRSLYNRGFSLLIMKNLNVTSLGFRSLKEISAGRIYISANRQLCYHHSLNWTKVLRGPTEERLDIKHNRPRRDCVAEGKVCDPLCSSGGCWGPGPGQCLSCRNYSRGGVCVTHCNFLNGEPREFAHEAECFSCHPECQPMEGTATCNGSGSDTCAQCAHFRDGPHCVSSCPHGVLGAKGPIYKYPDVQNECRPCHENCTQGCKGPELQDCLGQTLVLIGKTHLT
Description: SPR Biacore T100, antibody captured.

In the next assay the target is T2, HER4 ECD-HRG complex (human, UniProt Q15303 26-651).
T2 construct: Her-4 ECD pre-incubated with a 5-fold molar excess of Heregulin; also called Her-4 ECD/Heregulin complex
T2 sequence 1: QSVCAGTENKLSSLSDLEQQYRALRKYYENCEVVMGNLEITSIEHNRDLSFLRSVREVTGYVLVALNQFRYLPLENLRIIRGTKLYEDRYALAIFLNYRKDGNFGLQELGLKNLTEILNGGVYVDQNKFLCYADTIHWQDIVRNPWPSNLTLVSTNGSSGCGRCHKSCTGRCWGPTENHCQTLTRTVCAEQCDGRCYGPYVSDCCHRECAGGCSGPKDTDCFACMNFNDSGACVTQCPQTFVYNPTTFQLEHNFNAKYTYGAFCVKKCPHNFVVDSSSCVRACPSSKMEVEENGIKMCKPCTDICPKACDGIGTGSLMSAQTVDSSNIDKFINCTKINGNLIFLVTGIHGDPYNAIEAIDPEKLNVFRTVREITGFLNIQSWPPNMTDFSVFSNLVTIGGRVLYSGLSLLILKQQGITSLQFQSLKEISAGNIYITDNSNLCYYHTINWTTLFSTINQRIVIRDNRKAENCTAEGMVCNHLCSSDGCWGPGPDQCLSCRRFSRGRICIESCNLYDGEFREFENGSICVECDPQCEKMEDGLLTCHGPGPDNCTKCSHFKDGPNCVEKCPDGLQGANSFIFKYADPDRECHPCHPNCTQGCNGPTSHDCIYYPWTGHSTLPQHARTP
T2 sequence 2: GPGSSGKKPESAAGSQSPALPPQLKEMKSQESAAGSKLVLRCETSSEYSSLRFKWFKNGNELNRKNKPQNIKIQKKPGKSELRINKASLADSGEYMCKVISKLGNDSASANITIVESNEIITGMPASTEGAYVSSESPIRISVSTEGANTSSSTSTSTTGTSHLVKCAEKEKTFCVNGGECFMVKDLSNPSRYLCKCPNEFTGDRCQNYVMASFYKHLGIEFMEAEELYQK
Description: SPR Biacore T100, antibody captured. On the technique in general: In SPR one partner is held on a chip, and binding of the other changes the refractive index at the surface.

Assay [3] deals with T3, human recombinant HER3 ECD (human, UniProt P21860 20-643).
T3 construct: 68 kDa recombinant protein; also called human-Her3-ECD; full length Her3 ECD
T3 sequence (P21860 20-643): as the sequence (P21860 20-643 limits assumed, one chain of several) above
Description: binding affinity; method not restated (evaluated 'as described above'); HER3-ECD without HRG.

The target in assay [4] is T1, HER3 ECD-HRG complex. Description: binding affinity; method not restated (evaluated 'as described above').
Assay [5] concerns the target T3, human recombinant HER3 ECD. Described as above.

Chain of SBP-tagged HER3-ECD (human) (chain, as listed by the source limits assumed, form in doubt): as the sequence (P21860 20-643 limits assumed, one chain of several) above

As to “Europium-labeled Heregulin-beta (PeproTech, Cat. #100-03) (from UniProt Q02297-11 122-186) (ligand)”, the time-resolved fluorescence signal at the plateau, in the presence of M-05-74 in assay [1] came out at 650.

B1: anti-HER3/HER4 antibody M-05-74 (antibody, V domains shown)
VH: QVQLQQSGAELAKPGASVKMSCKTSGYTLTDYWIHWVKQRPGQGLEWIGYINPYTGYTESNQKFKDKATLTADKSSNTAYIQLSSLTSEDSAVYYCARPYYYGDYWGQGTTLTVSS
VL: QIVLTQSPAIMSASPGERVTITCSASSSVSYMHWFQQKPGTSPKLLIYSTSNLASGVPARFSGSGSGTSYSLTISRMEAEDAATYYCQQRSSYPFTFGSGTKLEIK
notes: Murine monoclonal antibody from hybridoma (culture supernatant or purified full length); also called M-074; M-5-74
For the molecule B1, in the assay with HER3 ECD-HRG complex [2], the “ratio MR (+Heregulin)/MR (-Heregulin), against HER3-ECD alone” value stood at 3 fold and the “ratio ka (+Heregulin)/ka (-Heregulin), against HER3-ECD alone” value stood at 4.85 fold. In addition, in the assay with HER4 ECD-HRG complex, the “ratio MR (+Heregulin)/MR (-Heregulin), against HER4-ECD alone” value is 6 fold and the “ratio ka (+Heregulin)/ka (-Heregulin), against HER4-ECD alone” value is 23.9 fold.

B2: huMab M-05-74_5 (antibody, V domains shown)
VH: QVQLVQSGAELKKPGASVKVSCKASGYTLTDYWIHWVRQAPGQGLEWMGYINPYTGYTESNQKFQGRVTMTADTSTSTAYMELSSLRSEDTAVYYCARPYYYGDYWGQGTTVTVSS
VL: EIVLTQSPATLSLSPGERATLSCRASSSVSYMHWYQQKPGQAPRLLIYSTSNLATGIPARFSGSGSGTDFTLTISSLEPEDFAVYYCQQRSSYPFTFGQGTKLEIK
notes: Humanized variant of M-05-74
B2: the Kd (usually the constant that tells how readily two partners part at equilibrium) came out at 3.2 nM in assay [3] and 4.1 nM with HER3 ECD-HRG complex [4].

B3: huMab M-05-74_6 (antibody, V domains shown)
VH: B2 VH
VL: DIQMTQSPSSLSASVGDRVTITCRASSSVSYMHWFQQKPGKAPKLLIYSTSNLQSGVPSRFSGSGSGTDFTLTISSLQPEDFATYYCQQRSSYPFTFGQGTKLEIK
notes: Humanized variant of M-05-74
In the case of B3, the Kd amounted to 8.6 nM with HER3 ECD-HRG complex [4] and 8.3 nM in assay [5].
